Test results taken from paper PMC13142116, “Development and structure-guided characterization of a novel ACE2-binding macrocyclic peptide” (Journal of Structural Biology: X, 2026).
Positions of bridges follow the written chain, without caps; N, C: chain ends. Non-standard residues stand in square brackets, D forms with d. *: point of attachment. DOTA = O=C(O)CN1CCN(CC(=O)O)CCN(CC(=O)*)CCN(CC(=O)O)CC1

Target: T1, ACE2 on HEK-293 cells transfected with ACE2 (HEK-ACE2) (UniProt Q9BYF1 18-805)
T1 construct: ACE2 expressed in transfected HEK-293 cells; Expression verified earlier by western blotting (Beyer et al., 2023); also called ACE2-transfected HEK cells; source: HEK-293 cells transfected with ACE2, bought: Innoprot; on cells
Test: radioligand binding; saturation binding of the radiopeptide (1-2000 nM, 5 MBq/nmol) on HEK-ACE2 cells, 1 h at 4 °C on ice, DMEM without supplements; non-specific binding determined with 20 µM DX600; n = 3
Details: one partner purified

T1 sequence (Q9BYF1 18-805): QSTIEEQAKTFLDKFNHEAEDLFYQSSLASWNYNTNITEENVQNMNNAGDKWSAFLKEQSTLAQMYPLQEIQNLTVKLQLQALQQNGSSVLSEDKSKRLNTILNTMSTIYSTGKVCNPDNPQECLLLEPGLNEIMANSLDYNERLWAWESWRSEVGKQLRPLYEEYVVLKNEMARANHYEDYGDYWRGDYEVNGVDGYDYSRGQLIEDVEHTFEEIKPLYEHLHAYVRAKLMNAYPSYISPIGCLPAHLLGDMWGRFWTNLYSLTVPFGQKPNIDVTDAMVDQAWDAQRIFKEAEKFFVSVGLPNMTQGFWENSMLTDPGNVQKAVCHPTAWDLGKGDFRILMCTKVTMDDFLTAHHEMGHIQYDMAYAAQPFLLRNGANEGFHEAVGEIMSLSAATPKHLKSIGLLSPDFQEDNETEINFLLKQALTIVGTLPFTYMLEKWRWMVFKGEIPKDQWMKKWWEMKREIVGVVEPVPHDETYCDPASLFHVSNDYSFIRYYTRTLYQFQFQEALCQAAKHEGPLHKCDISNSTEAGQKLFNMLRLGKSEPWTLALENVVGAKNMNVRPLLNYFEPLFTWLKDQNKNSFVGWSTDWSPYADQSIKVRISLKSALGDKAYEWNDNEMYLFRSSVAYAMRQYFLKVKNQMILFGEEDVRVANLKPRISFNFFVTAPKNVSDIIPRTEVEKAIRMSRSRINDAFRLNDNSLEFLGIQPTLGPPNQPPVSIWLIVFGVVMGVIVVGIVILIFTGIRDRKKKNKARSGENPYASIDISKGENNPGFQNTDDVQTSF

- Kd: 90 nM
B1: [67Ga]Ga-DOTA-WJL-63 (peptide)
peptide: Ac-[dY]STQISRGFTRDSRGCGSGSGSK(DOTA)-NH2
modifications: bridge N-16; not fully specified (bridges); also: DOTA loaded with 67Ga
notes: WJL-63 with DOTA on the side chain of the C-terminal lysine; printed in three-letter code; Same peptide as m1 with a DOTA chelator and 67Ga; made on Rink amide resin, so the C-terminus should be an amide as in m1; also called radiolabeled DOTA-WJL-63; WJL-63 radiopeptide; source: synthetic peptide, DOTA conjugated, radiolabeled with gallium-67, used without further purification
